The series deals with the molecule itself. The experiment in a line: native gel or EMSA. A general note: A gel shift assay detects complexes by their altered migration in electrophoresis.

As a reminder, the stoichiometry N is a count of units in the complex or per binding partner.

B1: wild-type GstA (glutathione S-transferase, PP_1162) of Pseudomonas putida KT2440 (enzyme, UniProt Q88NP5 1-209, looked up)
chain: MSNPIKLYNFPKSGHAHRIELMLSLLNLPTELVFVDLAKGAHKQPDFLALNPFGQVPVIDDNGTVIADSNAILVYLAKKYDNGTWLPEEPAAAARVQRWLSVAAGPLAFGPAAARLVTVFGASFNTDEVISRAHTLLKVIDAELANTPFLTGSTPTIADIANYSYIAHAPEGNVSLEPYANVRNWLARIEALPRFVPMPRTVIGLQTHA
For B1, the “stoichiometry N” value was 2.

(Values after article PMC10656745 (ACS synthetic biology, 2022).)
